The record followed here is US20250177546A1 (SANYOU BIOPHARMACEUTICALS, published 2025).

The EC50 is the concentration that produces a half-maximal response. Low readings indicate higher potency in that assay, high ones lower potency in that assay. Usually EC50 (read off the curve) stands for the concentration needed to bring the measured effect to its halfway point. High values mean weaker potency, low ones greater potency. Broadly, the Kd is a measure of binding affinity in units of concentration. Broadly, the koff is the first-order rate constant of dissociation. Low readings indicate slow dissociation, high ones fast dissociation. The term kon denotes the second-order rate constant of association.

The target in experiment [1] is T1, huROR1-His (human ROR1 ECD AA30-406 with C-terminal His tag, made in house) (human, UniProt Q01973 30-406).
T1 construct: range 30-406; Expressed in HEK293; also called antigen protein huROR1-His; not shown: C-terminal His tag
The experiment in a line: ELISA, huROR1-His coated plate, goat anti-human Fc-HRP, OD450. For orientation: In an ELISA, binding on a coated surface is turned into a signal by an enzyme label.

The target in experiment [2] is T2, human ROR1 on cells (full-length human ROR1 on huROR1-HEK293 cells; human ROR1 on A549 and HT-29 tumor cells) (human, UniProt Q01973 30-937).
T2 construct: whole, on cells; also called hROR1-HEK293T; A549 tumor cells
The experiment in a line: flow cytometry (FACS) on A549 tumor cells, anti-human IgG-Fc secondary antibody, MFI. The procedure: (§1) The specific method was as follows: A549 cells or HT-29 cells in the logarithmic growth phase were prepared to a single-cell suspension, the density was adjusted to 1×10⁶ cells/mL, 100 µL/well was added to a 96-well round-bottom plate, then centrifuged at 4° C., 300 g, and the supernatant was removed. […] After the incubation, the cell mixture was washed three times and then 100 μL of 1:300 diluted secondary antibody Goat F(ab′)₂ Anti-Human IgG-Fc (abcam, ab98596) was added. The mixture was incubated at 4° C. in the dark for 30 min. After washing three times, the cells were detected by flow cytometry (Beckman, CytoFLEX AOO-1-1102).
A general note: In flow cytometry, cells or beads pass a laser one at a time.

For experiment [3], the target named is T2, human ROR1 on cells (full-length human …). The experiment in a line: flow cytometry (FACS) on HT29 (HT-29) tumor cells, anti-human IgG-Fc secondary antibody, MFI. The protocol:
as §1

Experiment [4] has as its target T1, huROR1-His (human ROR1 ECD AA30-406 …). Put plainly: ELISA, huROR1-His coated plate, goat anti-human Fc-HRP, OD450. This is another data set of the same source.
The target is the same in experiment [5]. Put plainly: Gator (BLI) Advanced Kinetics; antibody 30 nM, huROR1-His 480-7.5 nM. The protocol:
First, Q buffer was prepared with PBS (10 mM pH7.4) (IgG-free, purchased from Jackson ImmunoResearch Lab)+0.02% Tween 20 (purchased from thermo)+0.2% BSA (purchased from source culture), and the stock solution of the test antibody was diluted with the prepared Q buffer to a working solution with a final concentration of 30 nM, the stock solution of the antigen protein huROR1-His was prepared with Q buffer into a working solution with multiple dilutions (480, 240, 120, 60, 30, 15, 7.5 nM), and detection and analysis was then performed with Gator instrument and its accompanying software, selecting the Advanced Kinetics experimental mode is used.

For experiment [6] the target is unchanged. Put plainly: ELISA, huROR1-His coated plate, goat anti-human Fc-HRP, OD450. The source holds these as a separate data set.
For experiment [7] the target is unchanged. The experiment in a line: ELISA, huROR1-His coated at 2 µg/mL, goat anti-human Fc-HRP, OD450. The procedure:
(§2) 96-well ELISA plate was coated with 2 μg/mL huROR1-His (30 μL/well) at 4° C. overnight. The next day, the plate was washed three times with PBST and then blocked with 5% skim milk for 2 h. […] After washing with PBST for three times, the secondary antibody Goat-anti-human Fc-HRP (abcam, ab97225) was added and incubated for 1 h. After incubation, the plate was washed with PBST for 6 times and TMB (SurModics, TMBS-1000-01) was added for color development. According to the color development results, 2 M HCl was added to terminate the reaction, and the data were read at OD450 using a microplate reader (Molecular Devices, SpecterMax 190).

The target of experiment [8] is T3, huROR2-His (human ROR2 ECD AA34-403 with C-terminal His tag) (human, UniProt Q01974 34-403).
T3 construct: range 34-403; Expressed in HEK293; also called human ROR2 antigen protein; not shown: C-terminal His tag
The experiment in a line: ELISA, huROR2-His coated at 2 µg/mL, goat anti-human Fc-HRP, OD450. The protocol:
as §2, with “huROR2-His” for “huROR1-His”, “TMBS-1000-0)” for “TMBS-1000-01)”

For experiment [9], the target named is T4, MusROR1-His (mouse ROR1 ECD AA30-406 with C-terminal His tag) (mouse, UniProt Q9Z139 30-406).
T4 construct: range 30-406; Expressed in HEK293; also called mouse ROR1 antigen protein; not shown: C-terminal His tag
Put plainly: ELISA, MusROR1-His coated at 2 µg/mL, goat anti-human Fc-HRP, OD450. The procedure:
as §2, with “MusROR1-His” for “huROR1-His”

For experiment [10], the target named is T2, human ROR1 on cells (full-length human …). The experiment in a line: flow cytometry (FACS) on A549 tumor cells, anti-human IgG-Fc secondary antibody, MFI. The procedure: (§3) In this example, the binding activity of the antibody was evaluated using two types of cells, huROR1-HEK293 cells over-expressing human ROR1 and A549 tumor cells.
as §1, with “huROR1-HEK293” for “A549”, “A549” for “HT-29”, “cells/mL, then” for “cells/mL,”, “μL/well cells were” for “µL/well was”, “plate,” for “plate, then”
This is another data set of the same source.

For experiment [11] the target is unchanged. The experiment in a line: flow cytometry (FACS) on huROR1-HEK293 cells, anti-human IgG-Fc secondary antibody, MFI. The protocol:
as §3
as §1, with “huROR1-HEK293” for “A549”, “A549” for “HT-29”, “cells/mL, then” for “cells/mL,”, “μL/well cells were” for “µL/well was”, “plate,” for “plate, then”

In experiment [12] the target is T1, huROR1-His (human ROR1 ECD AA30-406 …). Put plainly: Biacore T200 SPR; huROR1-His amine-coupled (~75 RU), antibody 4 and 20 nM as analyte, 1:1 Langmuir fit. The protocol:
Protein coupling: The huROR1-His protein produced in Example 1.2 was diluted to 5.6 μg/mL with NaAc buffer, pH 5.0, the flow rate was set to 10 μL/min, the chip activation time was set to the default value of 420 s with a mixture of 1-ethyl-(3-dimethylaminopropyl)carbodiimide (EDC) and N-hydroxysuccinimide (NHS), and the antigen protein huROR1-His was fixed to a level of about 75 RU using a coupling mode with a preset coupling amount, and the activated groups that were not bound to the test sample were blocked with ethanolamine.
Sample test conditions: PBS buffer (pH 7.4) containing 0.05% Tween-20 was used as the running buffer, and the running buffer was used as the control test sample. A series of antibody concentrations (4 nM, 20 nM) were set. During sample analysis, the flow rate was set to 30 μL/min, the binding time was 120 s, and the dissociation time was 360 s. After the dissociation was completed, 10 mM Gly-HCl (pH 2.0) was used for regeneration for 20 s to completely remove the antibody bound to the ligand.
Parameter fitting: The experiment was run in multiple cycles, with the response signal taking the analysis time as the horizontal axis and the response value as the vertical axis. After double reference subtraction, the obtained data were fitted by BiAcore T200 analysis software. The fitting model adopted was 1:1 Langmuir binding model, and Affinity metrics such as the binding dissociation constant were determined.
In general terms: Surface plasmon resonance follows binding to a sensor surface in real time, without labels.

T2 sequence (Q01973 30-937): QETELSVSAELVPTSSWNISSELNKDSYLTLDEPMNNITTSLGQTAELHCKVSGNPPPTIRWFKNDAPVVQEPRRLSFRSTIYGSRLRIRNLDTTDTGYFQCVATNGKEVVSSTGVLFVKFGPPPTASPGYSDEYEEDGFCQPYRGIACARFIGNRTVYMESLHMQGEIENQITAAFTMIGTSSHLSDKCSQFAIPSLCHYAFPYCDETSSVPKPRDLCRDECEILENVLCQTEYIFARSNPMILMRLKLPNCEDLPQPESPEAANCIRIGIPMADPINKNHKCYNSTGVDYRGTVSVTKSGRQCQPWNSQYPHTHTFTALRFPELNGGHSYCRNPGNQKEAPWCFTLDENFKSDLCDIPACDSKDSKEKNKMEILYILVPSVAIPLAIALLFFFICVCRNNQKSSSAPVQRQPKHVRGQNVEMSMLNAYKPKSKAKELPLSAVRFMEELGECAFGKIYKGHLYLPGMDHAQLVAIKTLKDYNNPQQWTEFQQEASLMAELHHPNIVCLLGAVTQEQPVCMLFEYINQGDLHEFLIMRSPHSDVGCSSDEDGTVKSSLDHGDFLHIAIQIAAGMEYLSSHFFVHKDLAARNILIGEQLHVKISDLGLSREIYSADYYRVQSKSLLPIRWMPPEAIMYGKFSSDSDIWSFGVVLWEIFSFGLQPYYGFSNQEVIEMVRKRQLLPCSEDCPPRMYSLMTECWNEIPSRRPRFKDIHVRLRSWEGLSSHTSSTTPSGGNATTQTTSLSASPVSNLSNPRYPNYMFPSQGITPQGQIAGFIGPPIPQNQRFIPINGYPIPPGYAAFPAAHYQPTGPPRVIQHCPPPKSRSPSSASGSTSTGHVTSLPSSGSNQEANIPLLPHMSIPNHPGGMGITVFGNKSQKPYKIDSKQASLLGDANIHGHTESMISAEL
T1 sequence (Q01973 30-406 limits assumed): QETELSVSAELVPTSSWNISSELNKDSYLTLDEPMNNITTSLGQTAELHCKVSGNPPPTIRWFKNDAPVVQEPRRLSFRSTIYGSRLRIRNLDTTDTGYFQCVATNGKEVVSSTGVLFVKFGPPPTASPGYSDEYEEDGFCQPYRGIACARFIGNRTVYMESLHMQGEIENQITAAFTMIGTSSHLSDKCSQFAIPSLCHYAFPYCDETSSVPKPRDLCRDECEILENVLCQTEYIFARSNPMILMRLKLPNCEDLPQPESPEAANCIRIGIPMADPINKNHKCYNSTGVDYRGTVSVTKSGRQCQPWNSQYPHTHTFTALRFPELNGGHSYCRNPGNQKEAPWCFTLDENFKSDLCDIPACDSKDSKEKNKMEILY
T4 sequence (Q9Z139 30-406 limits assumed): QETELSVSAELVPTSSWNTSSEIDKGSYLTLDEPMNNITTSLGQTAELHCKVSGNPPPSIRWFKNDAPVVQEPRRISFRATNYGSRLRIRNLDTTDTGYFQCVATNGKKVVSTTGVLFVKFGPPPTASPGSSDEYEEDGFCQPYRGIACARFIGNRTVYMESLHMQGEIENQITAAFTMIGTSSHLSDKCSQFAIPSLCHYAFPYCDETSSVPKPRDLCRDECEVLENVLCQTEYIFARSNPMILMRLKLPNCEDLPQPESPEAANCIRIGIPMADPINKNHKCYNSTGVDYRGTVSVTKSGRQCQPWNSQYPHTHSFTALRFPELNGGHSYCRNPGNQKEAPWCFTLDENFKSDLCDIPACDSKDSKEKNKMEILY
T3 sequence (Q01974 34-403 limits assumed): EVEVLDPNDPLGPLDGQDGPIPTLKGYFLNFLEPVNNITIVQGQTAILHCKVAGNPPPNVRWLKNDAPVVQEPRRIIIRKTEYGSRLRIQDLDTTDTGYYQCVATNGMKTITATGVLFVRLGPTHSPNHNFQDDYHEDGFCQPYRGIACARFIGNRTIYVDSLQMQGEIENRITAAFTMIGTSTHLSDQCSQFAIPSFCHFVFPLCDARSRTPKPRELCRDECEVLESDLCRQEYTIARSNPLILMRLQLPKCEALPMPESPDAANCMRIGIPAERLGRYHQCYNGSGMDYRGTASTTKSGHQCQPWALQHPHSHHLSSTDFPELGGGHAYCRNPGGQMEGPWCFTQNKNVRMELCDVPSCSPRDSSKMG

B1: B62-H3L3 (antibody, human IgG1, kappa)
heavy: not shown
light: DIQMTQSPSSLSASVGDRVTITCVTSIDIDDDVNWYQQKPGKAPKLLISAGNTLRPGVPSRFSGSGSGTDFTFTISSLQPEDIATYYCLQSDNLPYTFGGGTKLEIKRTVAAPSVFIFPPSDEQLKSGTASVVCLLNNFYPREAKVQWKVDNALQSGNSQESVTEQDSKDSTYSLSSTLTLSKADYEKHKVYACEVTHQGLSSPVTKSFNRGEC
In turn, B1 returned an EC50 in experiment [1] of 7.21 ng/mL. Besides, the figures for the “EC50 (read off the curve)” value in [2] and in experiment [3] were roughly 10 ng/mL and roughly 20 ng/mL, respectively.

B2: B62-H3L3-MMAE (antibody, human IgG1, kappa)
heavy: not shown
light: DIQMTQSPSSLSASVGDRVTITCVTSIDIDDDVNWYQQKPGKAPKLLISAGNTLRPGVPSRFSGSGSGTDFTFTISSLQPEDIATYYCLQSDNLPYTFGGGTKLEIKRTVAAPSVFIFPPSDEQLKSGTASVVCLLNNFYPREAKVQWKVDNALQSGNSQESVTEQDSKDSTYSLSSTLTLSKADYEKHKVYACEVTHQGLSSPVTKSFNRGEC
modifications: MC-VC-PAB-MMAE on cysteine sulfhydryl groups of reduced interchain disulfides; average DAR 3.5 over the whole antibody
notes: conjugated positions not resolved; also called B62-H3L3-MC-VC-PAB-MMAE
As to B2, the “EC50 (read off the curve)” value in experiment [2] and in experiment [3] was roughly 20 ng/mL in each case.

B3: B31-H3L3-MMAE (antibody, human IgG1, kappa, V domains shown)
VH: EVQLVESGGGLVQPGGSLRLSCAASGFTFSRYAMSWVRQAPGKGLEWVASISRGGSTYYADSVKGRFTISRDNSKNTLYLQMNSLRAEDTAVYYCASYFGNYDAMDYWGQGTTVTVSS
VL: DIQMTQSPSSLSASVGDRVTITCRASQDINNYVSWFQQKPGKAPKSLIYRANRLVSGVPSRFSGSGSGTDFTFTISSLQPEDFATYYCLQFDEFPYTFGGGTKLEIKR
modifications: MC-VC-PAB-MMAE on cysteine sulfhydryl groups of reduced interchain disulfides; average DAR 3.5 over the whole antibody
notes: conjugated positions not resolved; also called B31-H3L3-MC-VC-PAB-MMAE; B31-MMAE
For B3, the “EC50 (read off the curve)” value in experiment [2] and in experiment [3] was roughly 20 ng/mL in each case.

B4: B31-H1L1 (antibody, human IgG1, kappa, V domains shown)
VH: EVQLVESGGGLVQPGGSLRLSCAASGFTFSRYAMSWVRQTPGKRLEWVASISRGGSTYYPDSVKGRFTISRDNAKNTLYLQMSSLRAEDTAMYYCASYFGNYDAMDYWGQGTTVTVSS
VL: DIQMTQSPSSLSASVGDRVTITCKASQDINNYVSWFQQKPGKAPKTLIYRANRLVDGVPSRFSGSGSGQDYTFTISSLQPEDFATYYCLQFDEFPYTFGGGTKLEIKR
notes: also called B31-HIL1
In experiment [4], B4 registered an EC50 of 3.24 ng/mL.

B5: B31-H2L2 (antibody, human IgG1, kappa, V domains shown)
VH: EVQLVESGGGLVQPGGSLRLSCAASGFTFSRYAMSWVRQAPGKGLEWVASISRGGSTYYADSVKGRFTISRDNAKNTLYLQMSSLRAEDTAVYYCASYFGNYDAMDYWGQGTTVTVSS
VL: DIQMTQSPSSLSASVGDRVTITCKASQDINNYVSWFQQKPGKAPKSLIYRANRLVDGVPSRFSGSGSGTDYTFTISSLQPEDFATYYCLQFDEFPYTFGGGTKLEIKR
For B5, in [4], the midpoint of the response, the EC50, lay at 4.57 ng/mL.

B6: B62 (chimeric antibody) (antibody, human IgG1, kappa, V domains shown)
VH: DVKLVESGGGLVQPGGSLKLSCAASGFTFSSYVMSWVRQTPDKRLELVATINSNGGNTYYPDSVKGRFTISRDNAKNTLYLQMSSLKSEDTAMYYCARDSLGLRRRDYAMDYWGQGTSVTVSS
VL: DIVLTQSPASLSMAIGEKVTIRCVTSIDIDDDVNWYQQKPGKPPKLLISAGNTLRPGVPSRFSSSGYGTDFVFTIENMLSEDVADYYCLQSDNLPYTFGGGTKLEIKR
notes: ExpiCHO expression
For the molecule B6, the dissociation constant (Kd) in [5] came out at 0.984 nM; in [12] it was 0.0639 nM. Also, the figures for the off-rate (koff) in experiment [5] and in [12] were 0.000373 s⁻¹ and 7.74e-05 s⁻¹, respectively. Further, the kon in experiment [5] amounted to 379000 M⁻¹ s⁻¹; in [12], 1.21e+06 M⁻¹ s⁻¹. In addition, the values for the EC50 in experiment [6], in [1] and in experiment [7] were 5.58 ng/mL, 5.46 ng/mL and 8.03 ng/mL, respectively. Moreover, the binding result in experiment [8] is “no binding (tested: 1 µg/mL)”. For the same molecule, the “EC50 (read off the curve)” value in [9] was roughly 4 ng/mL; in experiment [10], roughly 6 ng/mL; in experiment [11], roughly 70 ng/mL. Moreover, in experiment [12], the “t 1/2” value amounted to 2.49 h.
